These results are taken from patent US20220213456.

Series [1] concerns T1, OMNI-36 (Blastopirellula marina).
T1 sequence: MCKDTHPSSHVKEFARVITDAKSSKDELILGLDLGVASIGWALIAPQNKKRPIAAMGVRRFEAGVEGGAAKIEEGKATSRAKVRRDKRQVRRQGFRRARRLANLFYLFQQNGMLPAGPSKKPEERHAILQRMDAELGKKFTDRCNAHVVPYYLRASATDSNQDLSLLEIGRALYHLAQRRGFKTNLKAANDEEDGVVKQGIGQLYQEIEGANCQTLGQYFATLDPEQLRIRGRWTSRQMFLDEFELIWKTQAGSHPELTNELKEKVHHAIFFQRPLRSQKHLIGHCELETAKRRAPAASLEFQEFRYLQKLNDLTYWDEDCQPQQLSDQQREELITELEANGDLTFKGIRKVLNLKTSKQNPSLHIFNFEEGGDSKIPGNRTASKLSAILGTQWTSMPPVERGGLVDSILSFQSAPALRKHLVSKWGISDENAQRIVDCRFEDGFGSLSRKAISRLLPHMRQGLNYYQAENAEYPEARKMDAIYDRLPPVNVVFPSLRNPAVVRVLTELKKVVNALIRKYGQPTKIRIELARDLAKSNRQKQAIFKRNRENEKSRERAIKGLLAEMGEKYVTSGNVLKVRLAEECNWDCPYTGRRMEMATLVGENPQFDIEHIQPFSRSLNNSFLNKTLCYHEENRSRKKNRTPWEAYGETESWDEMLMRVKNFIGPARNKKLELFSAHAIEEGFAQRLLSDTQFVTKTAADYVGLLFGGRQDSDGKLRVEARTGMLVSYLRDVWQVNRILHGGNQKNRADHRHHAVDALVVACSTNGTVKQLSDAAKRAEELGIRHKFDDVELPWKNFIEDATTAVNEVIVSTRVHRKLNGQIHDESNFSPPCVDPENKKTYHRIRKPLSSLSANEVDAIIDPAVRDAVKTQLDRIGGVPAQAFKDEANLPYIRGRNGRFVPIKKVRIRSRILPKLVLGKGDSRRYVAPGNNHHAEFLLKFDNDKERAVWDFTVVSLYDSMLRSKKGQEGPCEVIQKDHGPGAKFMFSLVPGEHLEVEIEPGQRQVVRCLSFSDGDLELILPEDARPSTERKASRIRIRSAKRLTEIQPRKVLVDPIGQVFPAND
The series is described as follows: cleavage_in_vitro. Conditions: TXTL; PAM NNYCCC; V1, V2 tested.

The subject of series [2] is T2, OMNI-39 (Butyrivibrio sp. AC2005).
T2 sequence: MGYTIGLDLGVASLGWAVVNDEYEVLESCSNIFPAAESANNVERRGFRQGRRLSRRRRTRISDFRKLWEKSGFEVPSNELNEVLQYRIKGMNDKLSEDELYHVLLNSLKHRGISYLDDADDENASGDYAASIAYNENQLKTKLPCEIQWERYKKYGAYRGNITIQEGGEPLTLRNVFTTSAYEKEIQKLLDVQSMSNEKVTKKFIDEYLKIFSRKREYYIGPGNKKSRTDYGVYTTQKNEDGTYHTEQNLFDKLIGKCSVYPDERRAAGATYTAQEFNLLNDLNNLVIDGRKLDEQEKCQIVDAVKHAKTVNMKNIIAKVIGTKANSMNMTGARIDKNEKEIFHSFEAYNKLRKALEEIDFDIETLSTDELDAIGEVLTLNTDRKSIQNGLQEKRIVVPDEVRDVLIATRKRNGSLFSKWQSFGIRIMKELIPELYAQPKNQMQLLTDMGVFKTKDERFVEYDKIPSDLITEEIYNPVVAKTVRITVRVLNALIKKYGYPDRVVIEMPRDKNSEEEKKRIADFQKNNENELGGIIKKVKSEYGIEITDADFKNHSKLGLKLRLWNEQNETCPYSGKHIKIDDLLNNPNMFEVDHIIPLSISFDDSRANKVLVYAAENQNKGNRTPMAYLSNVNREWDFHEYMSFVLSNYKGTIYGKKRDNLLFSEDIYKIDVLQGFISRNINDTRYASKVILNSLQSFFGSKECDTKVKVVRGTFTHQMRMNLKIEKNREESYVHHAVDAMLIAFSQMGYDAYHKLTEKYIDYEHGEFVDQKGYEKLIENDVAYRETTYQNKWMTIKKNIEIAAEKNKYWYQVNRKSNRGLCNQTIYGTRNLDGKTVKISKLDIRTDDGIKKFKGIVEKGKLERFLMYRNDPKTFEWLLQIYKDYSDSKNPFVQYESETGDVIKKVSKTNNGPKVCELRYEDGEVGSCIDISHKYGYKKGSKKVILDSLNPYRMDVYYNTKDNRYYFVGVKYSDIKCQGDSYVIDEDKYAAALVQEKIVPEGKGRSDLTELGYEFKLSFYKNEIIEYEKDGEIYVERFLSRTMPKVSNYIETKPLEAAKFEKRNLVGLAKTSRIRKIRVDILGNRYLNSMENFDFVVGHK
Nature of the series: cell_activity. Conditions: E. coli plasmid depletion; PAM NNGYAD (specific NNGYAA).

For series [3] the test system is unchanged. The series is described as follows: cleavage_in_vitro. Conditions: TXTL; PAM NNGHAD (specific NNGYAA).
Series [4] deals with T3, OMNI-40 (bacterium LF-3).
T3 sequence: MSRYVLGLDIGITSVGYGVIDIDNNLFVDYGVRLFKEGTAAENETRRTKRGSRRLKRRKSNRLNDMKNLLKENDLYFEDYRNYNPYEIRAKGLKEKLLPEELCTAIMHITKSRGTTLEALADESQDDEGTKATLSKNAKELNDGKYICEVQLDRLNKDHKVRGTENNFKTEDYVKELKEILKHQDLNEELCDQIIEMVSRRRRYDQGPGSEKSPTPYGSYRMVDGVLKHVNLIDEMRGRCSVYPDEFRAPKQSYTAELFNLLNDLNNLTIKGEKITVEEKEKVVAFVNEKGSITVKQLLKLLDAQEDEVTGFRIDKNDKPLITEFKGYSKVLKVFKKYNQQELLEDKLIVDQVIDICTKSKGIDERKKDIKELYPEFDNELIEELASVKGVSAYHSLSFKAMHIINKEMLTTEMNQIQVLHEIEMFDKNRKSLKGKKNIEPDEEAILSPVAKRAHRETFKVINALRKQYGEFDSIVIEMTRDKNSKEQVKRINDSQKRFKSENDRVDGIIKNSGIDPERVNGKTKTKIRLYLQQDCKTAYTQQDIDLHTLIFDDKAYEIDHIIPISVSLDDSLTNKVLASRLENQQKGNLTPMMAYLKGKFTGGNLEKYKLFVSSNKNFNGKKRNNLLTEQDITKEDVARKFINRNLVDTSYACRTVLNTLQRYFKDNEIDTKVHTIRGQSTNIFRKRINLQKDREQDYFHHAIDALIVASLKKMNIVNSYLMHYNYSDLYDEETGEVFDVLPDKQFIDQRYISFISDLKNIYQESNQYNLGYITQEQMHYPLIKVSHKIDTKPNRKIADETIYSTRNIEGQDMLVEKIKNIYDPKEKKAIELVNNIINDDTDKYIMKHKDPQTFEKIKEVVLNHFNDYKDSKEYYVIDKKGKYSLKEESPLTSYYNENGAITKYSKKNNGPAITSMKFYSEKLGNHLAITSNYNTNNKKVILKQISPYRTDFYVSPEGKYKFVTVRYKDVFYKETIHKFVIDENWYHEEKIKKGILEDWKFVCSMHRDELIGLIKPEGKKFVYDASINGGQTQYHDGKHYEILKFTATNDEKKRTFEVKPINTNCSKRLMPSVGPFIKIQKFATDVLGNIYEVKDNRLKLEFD
The series is described as follows: cell_activity. Conditions: E. coli plasmid depletion; PAM NYGRV (specific NYGAV).

In series [5] the test system is T3, OMNI-40 (bacterium LF-3). The series is described as follows: cleavage_in_vitro. Conditions: TXTL; PAM NYGRV.
In series [6] the test system is T4, OMNI-53 (Clostridium sp. AF02-29).
T4 sequence: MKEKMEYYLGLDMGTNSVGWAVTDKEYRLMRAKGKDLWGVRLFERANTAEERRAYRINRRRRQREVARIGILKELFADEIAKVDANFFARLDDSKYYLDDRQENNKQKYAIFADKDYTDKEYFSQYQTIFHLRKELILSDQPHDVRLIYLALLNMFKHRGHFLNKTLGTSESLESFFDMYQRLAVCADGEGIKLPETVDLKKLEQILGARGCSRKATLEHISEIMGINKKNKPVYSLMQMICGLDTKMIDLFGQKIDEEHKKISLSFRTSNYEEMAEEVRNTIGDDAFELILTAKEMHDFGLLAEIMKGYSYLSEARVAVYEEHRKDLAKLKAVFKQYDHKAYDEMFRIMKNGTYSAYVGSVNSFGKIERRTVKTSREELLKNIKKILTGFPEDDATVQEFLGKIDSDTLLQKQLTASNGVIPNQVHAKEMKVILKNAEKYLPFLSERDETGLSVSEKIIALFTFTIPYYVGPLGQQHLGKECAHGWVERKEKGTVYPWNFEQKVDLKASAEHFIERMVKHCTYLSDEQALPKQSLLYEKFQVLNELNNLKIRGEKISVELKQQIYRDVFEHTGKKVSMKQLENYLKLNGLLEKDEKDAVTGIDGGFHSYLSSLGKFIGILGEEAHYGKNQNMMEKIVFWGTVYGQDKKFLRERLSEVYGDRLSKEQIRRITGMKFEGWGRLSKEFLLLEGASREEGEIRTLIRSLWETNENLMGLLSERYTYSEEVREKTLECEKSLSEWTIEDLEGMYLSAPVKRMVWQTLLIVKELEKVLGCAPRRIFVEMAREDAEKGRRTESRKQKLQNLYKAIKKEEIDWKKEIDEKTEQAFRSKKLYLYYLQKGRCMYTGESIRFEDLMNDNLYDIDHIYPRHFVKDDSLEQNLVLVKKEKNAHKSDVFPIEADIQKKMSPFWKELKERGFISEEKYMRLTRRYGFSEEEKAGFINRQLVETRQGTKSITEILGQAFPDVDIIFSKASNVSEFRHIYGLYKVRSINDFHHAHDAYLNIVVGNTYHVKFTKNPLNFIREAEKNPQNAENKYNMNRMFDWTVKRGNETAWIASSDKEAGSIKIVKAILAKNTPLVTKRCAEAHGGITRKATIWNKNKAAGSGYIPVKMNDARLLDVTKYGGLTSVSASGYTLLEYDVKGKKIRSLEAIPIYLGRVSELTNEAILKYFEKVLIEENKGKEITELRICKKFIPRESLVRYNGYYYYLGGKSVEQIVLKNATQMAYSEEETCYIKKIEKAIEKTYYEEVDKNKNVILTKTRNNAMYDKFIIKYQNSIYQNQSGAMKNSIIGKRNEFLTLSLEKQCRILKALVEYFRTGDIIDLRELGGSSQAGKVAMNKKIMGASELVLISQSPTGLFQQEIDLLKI
The series is described as follows: cell_activity. Conditions: E. coli plasmid depletion; PAM NRTA.

Series [7] has the same test system. The series is described as follows: cleavage_in_vitro. Conditions: TXTL; PAM NRHR (specific NAWA).

Sequence “GGAAGAGCAGAGCCUUGGUCUCGCUGUGGCUUGGAGGGAAUCGUGAAAACGAUUGCUUCGCAAGUCAUAGUAAAGCAAUAGUCAGCGAAAGGUUUGCUCACGGAGCAUUCCGUCGAGUACCCUUUGACGCCUCCCAGCGGGGCGUCUUUUUUU / GGAAGAGCAGAGCCTTGGTCTCNNNNNNNN / NNNNNNNNGAGACCAAGGCTCTGCTCTTCC [OMNI-36 T2 sgRNA V1 ; pbPOS T2 protospacer 8N PAM library]” came in with an activity (1-depletion score) in series [1] of 0.99.
Take “GGAAGAGCAGAGCCUUGGUCUCGUUUUAGUACCUAGAGAAAGAAAUUUCUUUAGACCUACUAAAAUAAGGCUUUAUGCCGAGAUUAAAGGAUGCCGACGGGCAUCCUUUUUU / GGAAGAGCAGAGCCTTGGTCTCNNNNNNNN / NNNNNNNNGAGACCAAGGCTCTGCTCTTCC [OMNI-39 T2 sgRNA V2 ; pbPOS T2 protospacer 8N PAM library]”: the activity (1-depletion score) in series [2] amounted to 0.99; in series [3], 0.95.
Regarding “GGAAGAGCAGAGCCUUGGUCUCGUUUUGUUACCAUAUGAUUGAAAAUUUAUAUGACCUAACAAAACAAGGGUUUAUCCCGGACUCGGCUCUUCGGAGCCUUUUU / GGAAGAGCAGAGCCTTGGTCTCNNNNNNNN / NNNNNNNNGAGACCAAGGCTCTGCTCTTCC [OMNI-40 T2 sgRNA V2 ; pbPOS T2 protospacer 8N PAM library]”, the activity (1-depletion score) in the series on OMNI-40 (bacterium LF-3) [4] worked out at 0.95; with OMNI-40 (bacterium LF-3) [5] it was 0.97.
Take “GGAAGAGCAGAGCCUUGGUCUCGUUUGAGAACCAUGGAAACAUGGUGAGUGCAAAUAAGGAUUAUCCGAAAUUGUAUGCCCGCAUUGUGCGGCAAUAAAAAGGCUCGAAAGAGUCUUUUU / GGAAGAGCAGAGCCTTGGTCTCNNNNNNNN / NNNNNNNNGAGACCAAGGCTCTGCTCTTCC [OMNI-53 T2 sgRNA V1 ; pbPOS T2 protospacer 8N PAM library]”: the activity (1-depletion score) is 1 in series [6] and 0.97 in series [7].
